Publication PMC3144414

Key:
[1] = biological target: GMPCPP microtubules (polymerised from porcine brain tubulin with GMPCPP) (porcine) (UniProt P02550); experiment: in vitro MT-binding assay by epifluorescence microscopy
[2] = biological target: GDP microtubules (polymerised from porcine brain tubulin with GTP) (porcine) (UniProt P02550); experiment: as above

Kd [1]: 250 nM | Kd [2]: 930 nM
Substance: KIF5C monomeric motor domain (K351) (domain or fragment)
